Patent publication US20250043019A1 (Janssen / Centocor, published 2025)

T1: human CD20 on the cell surface (human, UniProt P11836 1-297)
T1 sequence (looked up): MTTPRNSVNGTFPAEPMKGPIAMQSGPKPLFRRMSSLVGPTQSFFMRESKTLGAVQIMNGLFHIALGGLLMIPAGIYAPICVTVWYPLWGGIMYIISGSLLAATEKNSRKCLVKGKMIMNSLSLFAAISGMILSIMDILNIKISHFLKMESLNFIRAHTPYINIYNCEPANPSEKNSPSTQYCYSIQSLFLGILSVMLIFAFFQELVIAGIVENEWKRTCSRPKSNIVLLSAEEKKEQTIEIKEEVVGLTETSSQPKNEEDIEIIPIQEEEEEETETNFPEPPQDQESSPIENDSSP


Legend:
[1] = biological target: human CD3 on primary T cells (human, UniProt P07766 23-207); assay: cell-based or functional assay
[2] = biological target: T1, human CD20 on the cell surface; assay: cell-based or functional assay
[3] = biological target: T2, cynomolgus monkey CD79b antigen (cynomolgus monkey); assay: SPR Biacore 8k, cyno CD79b injected up to 3000 nM
T2 construct: also called cyno CD79b; CD9W1.001
Experimental: General Protocol for SPR Affinity Assessment: Affinity assessment of the bispecific trispecific constructs against human CD79b were measure using recombinantly expressed extracellular domain of CD79b short and long isoforms (CD9W7.001 and CD9W8.001, respectively) by Surface Plasmon Resonance (SPR) using a Biacore 8k SPR system (Biacore) at 25° C. in HBSP+ buffer. Cross-reactivity of the same antibody panel was also assessed against cyno and mouse antigens (CD9W1.001 and CD9W105.001, respectively). Briefly, a C1 sensor chip was immobilized with anti-human Fc (target immobilization levels of >400 RU) using vendor recommended amino coupling protocol. […] The association and dissociation phases were measured for 2 or 3 minutes and 30 minutes, respectively.
The raw binding sensorgrams were processed using Biacore Insight software (Biacore) by double-referencing and the processed sensorgrams were analyzed for cross-reactivity and fitted to a 1:1 Langmuir model to obtain on-rates, off-rates and affinities.

Sequence of human CD3 on primary T cells (P07766 23-207): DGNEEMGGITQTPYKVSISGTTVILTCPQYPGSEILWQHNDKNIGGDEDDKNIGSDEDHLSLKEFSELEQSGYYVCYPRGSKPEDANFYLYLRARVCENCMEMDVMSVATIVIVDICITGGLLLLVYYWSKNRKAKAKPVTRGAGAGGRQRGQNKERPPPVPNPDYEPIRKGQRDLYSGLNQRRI

Binder | EC50 of CD8 T-cell activation, CARNAVAL, E:T 1:1, 48 hours [1] | EC50 of CD8 T-cell activation, CARNAVAL, E:T 1:1, 72 hours [1] | EC50 of CD8 T-cell activation, CARNAVAL, E:T 5:1, 48 hours [1] | EC50 of CD8 T-cell activation, CARNAVAL, E:T 5:1, 72 hours [1] | EC50 of CD8 T-cell activation, HT, E:T 5:1, 48 hours [1] | EC50 of CD8 T-cell activation, HT, E:T 5:1, 72 hours [1] | EC50 of CD8 T-cell activation, JEKO-1, E:T 1:1, 48 hours [1] | EC50 of CD8 T-cell activation, JEKO-1, E:T 1:1, 72 hours [1] | EC50 of CD8 T-cell activation, JEKO-1, E:T 5:1, 48 hours [1] | EC50 of CD8 T-cell activation, JEKO-1, E:T 5:1, 72 hours [1] | EC50 of CD8 T-cell activation, OCI-Ly10, E:T 1:1, 48 hours [1] | EC50 of CD8 T-cell activation, OCI-Ly10, E:T 1:1, 72 hours [1] | EC50 of CD8 T-cell activation, OCI-Ly10, E:T 5:1, 48 hours [1] | EC50 of CD8 T-cell activation, OCI-Ly10, E:T 5:1, 72 hours [1] | EC50 of CD8 T-cell activation, WILL-2, E:T 5:1, 48 hours [1] | EC50 of CD8 T-cell activation, WILL-2, E:T 5:1, 72 hours [1] | EC50, autologous B-cell depletion, donor D198013 [2] | EC50, autologous B-cell depletion, donor D221837 [2] | EC50, autologous B-cell depletion, donor D329465 [2] | Kd [3]
mosunetuzumab (bispecific antibody) chain 1: not shown chain 2: DIQMTQSPSSLSASVGDRVTITCRASSSVSYMHWYQQKPGKAPKPLIYAPSNLASGVPSRFSGSGSGTDFTLTISSLQPEDFATYYCQQWSFNPPTFGQGTKVEIKRTVAAPSVFIFPPSDEQLKSGTASVVCLLNNFYPREAKVQWKVDNALQSGNSQESVTEQDSKDSTYSLSSTLTLSKADYEKHKVYACEVTHQGLSSPVTKSFNRGEC chain 3: EVQLVQSGAEVKKPGASVKVSCKASGYTFTNYYIHWVRQAPGQGLEWIGWIYPGDGNTKYNEKFKGRATLTADTSTSTAYLELSSLRSEDTAVYYCARDSYSNYYFDYWGQGTLVTVSSASTKGPSVFPLAPSSKSTSGGTAALGCLVKDYFPEPVTVSWNSGALTSGVHTFPAVLQSSGLYSLSSVVTVPSSSLGTQTYICNVNHKPSNTKVDKKVEPKSCDKTHTCPPCPAPELLGGPSVFLFPPKPKDTLMISRTPEVTCVVVDVSHEDPEVKFNWYVDGVEVHNAKTKPREEQYGSTYRVVSVLTVLHQDWLNGKEYKCKVSNKALPAPIEKTISKAKGQPREPQVYTLPPSREEMTKNQVSLSCAVKGFYPSDIAVEWESNGQPENNYKTTPPVLDSDGSFFLVSKLTVDKSRWQQGNVFSCSVMHEALHNHYTQKSLSLSPGK chain 4: not shown | 0.053 nM | 0.013 nM | 0.038 nM | 0.021 nM | 0.148 nM | 0.078 nM | 0.022 nM | 0.021 nM | 0.043 nM | 0.019 nM | 0.045 nM | 0.035 nM | 0.256 nM | 0.12 nM | 1.24 nM | 1.27 nM | 0.2 nM | 0.5 nM | 0.2 nM | –
79C3B601 CD79bxCD3 bispecific antibody (bispecific antibody, human IgG1, kappa, L234A L235A, IgG1, knobs-in-holes, Fc-gamma-receptor-silencing mutations; HC1/LC = CD79b Fab arm, third chain = CD3 scFv-Fc arm; also called 79C3B601 bsAb; CD9B374 x CD3B2030-N106A) heavy: QVQLQESGPGLVKPSETLSLTCSVSGASISSFYWSWIRQPADEGLEWIGRISPSGKTNYIPSLKSRIIMSLDASKNQFSLRLNSVTAADTAMYYCARGEYSGTYSYSFDVWGQGTMVTVSSASTKGPSVFPLAPSSKSTSGGTAALGCLVKDYFPEPVTVSWNSGALTSGVHTFPAVLQSSGLYSLSSVVTVPSSSLGTQTYICNVNHKPSNTKVDKKVEPKSCDKTHTCPPCPAPEAAGGPSVFLFPPKPKDTLMISRTPEVTCVVVSVSHEDPEVKFNWYVDGVEVHNAKTKPREEQYNSTYRVVSVLTVLHQDWLNGKEYKCKVSNKALPAPIEKTISKAKGQPREPQVYTLPPSREEMTKNQVSLSCAVKGFYPSDIAVEWESNGQPENNYKTTPPVLDSDGSFFLVSKLTVDKSRWQQGNVFSCSVMHEALHNRFTQKSLSLSPGK light: DIVMTQSPLSLSVTPGEPASISCRSSESLLDSEDGNTYLDWFLQKPGQSPQLLIYTLSYRASGVPDRFSGSGSDTDFTLHISSLEAEDVGLYYCMQRMEFPLTFGQGTKVEIKRTVAAPSVFIFPPSDEQLKSGTASVVCLLNNFYPREAKVQWKVDNALQSGNSQESVTEQDSKDSTYSLSSTLTLSKADYEKHKVYACEVTHQGLSSPVTKSFNRGEC EIVLTQSPATLSASPGERVTLSCSASSSVSYMNWYQQKPGQAPRRWIYDSSKLASGVPARFSGSGSGRDYTLTISSLEPEDFAVYYCQQWSRNPPTFGGGTKVEIKGGSEGKSSGSGSESKSTGGSQVQLVQSGAEVKKPGSSVKVSCKASGYTFTRSTMHWVKQAPGQGLEWIGYINPSSAYTNYNQKFQGRVTLTADKSTSTAYMELSSLRSEDTAVYYCASPQVHYDYAGFPYWGQGTLVTVSSEPKSSDKTHTCPPCPAPEAAGGPSVFLFPPKPKDTLMISRTPEVTCVVVSVSHEDPEVKFNWYVDGVEVHNAKTKPREEQYNSTYRVVSVLTVLHQDWLNGKEYKCKVSNKALPAPIEKTISKAKGQPREPQVYTLPPSREEMTKNQVSLWCLVKGFYPSDIAVEWESNGQPENNYKTTPPVLDSDGSFFLYSKLTVDKSRWQQGNVFSCSVMHEALHNHYTQKSLSLSPGK | – | – | – | – | – | – | – | – | – | – | – | – | – | – | – | – | – | – | – | > 3000 nM
